The target of one assay is Human Siglec-7 (human) (UniProt Q9Y286). Briefly: flow cytometry on fresh purified human NK cells (CD3-/CD56+), isotype control staining.
For assay [1], the target named is Human Siglec-9 (human) (UniProt Q9Y336). In words: flow cytometry titration on neuraminidase-treated moDCs, goat F(ab')2 anti-human IgG (Fc) PE; table under the right panel; the curve itself is flat. Background: Flow cytometry measures light scatter and fluorescence of single cells or particles in a stream.
Chain of Human Siglec-9 (human) (Q9Y336 18-463): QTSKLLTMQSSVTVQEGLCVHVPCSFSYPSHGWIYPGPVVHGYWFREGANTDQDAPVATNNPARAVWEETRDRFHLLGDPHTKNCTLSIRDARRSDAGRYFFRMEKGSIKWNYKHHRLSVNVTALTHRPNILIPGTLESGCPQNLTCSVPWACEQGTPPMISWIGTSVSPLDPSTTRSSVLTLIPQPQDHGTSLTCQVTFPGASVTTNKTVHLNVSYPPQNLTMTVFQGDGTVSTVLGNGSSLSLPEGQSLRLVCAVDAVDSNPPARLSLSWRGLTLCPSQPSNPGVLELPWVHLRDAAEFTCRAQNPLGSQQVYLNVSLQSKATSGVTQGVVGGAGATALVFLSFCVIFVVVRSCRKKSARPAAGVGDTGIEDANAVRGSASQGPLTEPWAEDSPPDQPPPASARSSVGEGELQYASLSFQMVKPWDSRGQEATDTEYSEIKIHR
Assay [2] shares this target. Briefly: flow cytometry titration on untreated monocyte-derived dendritic cells (moDCs), goat F(ab')2 anti-human IgG (Fc) PE; table under the left panel; the curve itself is flat.
For assay [3] the target is unchanged. Briefly: flow cytometry on fresh purified human NK cells (CD3-/CD56+), isotype control staining.

Chain of Human Siglec-7 (human) (Q9Y286 19-467): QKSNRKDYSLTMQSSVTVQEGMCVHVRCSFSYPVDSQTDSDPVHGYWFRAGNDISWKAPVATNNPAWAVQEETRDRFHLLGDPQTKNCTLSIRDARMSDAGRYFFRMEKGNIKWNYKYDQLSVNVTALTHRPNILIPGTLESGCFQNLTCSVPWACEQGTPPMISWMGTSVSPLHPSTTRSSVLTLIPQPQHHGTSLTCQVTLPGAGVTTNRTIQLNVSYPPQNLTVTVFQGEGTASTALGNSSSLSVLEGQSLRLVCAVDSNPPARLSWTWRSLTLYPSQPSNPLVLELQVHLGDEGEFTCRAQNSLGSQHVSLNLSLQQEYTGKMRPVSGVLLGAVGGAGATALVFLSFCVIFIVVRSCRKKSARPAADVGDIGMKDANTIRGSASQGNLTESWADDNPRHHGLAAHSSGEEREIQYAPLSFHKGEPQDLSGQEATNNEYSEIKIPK

On to Isotype control - APC (antibody), for which, in the assay with Human Siglec-7 (human), the percent of NK cells in quadrant Q1 (APC positive, PE negative) stood at 0.975% and the percent of NK cells in quadrant Q2 (APC positive, PE positive) turned out to be 0.34%.

Turning to Isotype control (antibody), the results for the concentration for a half-maximal effect (EC50) in the assay with Human Siglec-9 (human) [1] and with Human Siglec-9 (human) [2] were 1.22 µg/mL and 2.24 µg/mL, respectively.

In the case of Isotype control - PE (antibody), in the assay with Human Siglec-9 (human) [3], the percent of NK cells in quadrant Q2 (APC positive, PE positive) is 0.34% and the percent of NK cells in quadrant Q3 (PE positive, APC negative) turned out to be 2.54%.

In general, EC50 refers to the concentration at which the effect is half-maximal.

(Values after patent US20200369765A1.)
